From the supplement of paper PMC9170038

Tested on: K4 kissing-loop RNA reporter
Test: apparent KD of K4 kissing-loop reporter; higher = weaker reporter binding
Conditions: Eterna round: R107
Protocol: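 RNA-MaP round R107: designed RNA switches with theophylline, tryptophan, arginine or FMN aptamers are transcribed on-chip within common flanks. They are titrated with a labelled K4 kissing-loop RNA reporter in RNA-MaP buffer (100 mM Tris pH 7.5, 80 mM KCl, 4 mM MgCl2), without ligand or with the indicated ligand. Median apparent KD per design.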

[1] = input ligand: theophylline 20 uM
[2] = input ligand: tryptophan 2.4 mM
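Note: bound reporter read as fluorescence of individual clusters on recovered sequencing chips by microscopy, with normalized cluster intensities fitted with a binding model.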

Row | Sequence | apparent KD of K4 kissing-loop reporter (input ligand: FMN 200 uM) | apparent KD of K4 kissing-loop reporter (input ligand: arginine 13.2 mM) | apparent KD of K4 kissing-loop reporter (input ligand: none) | apparent KD of K4 kissing-loop reporter [1] | apparent KD of K4 kissing-loop reporter [2]
1 | GCAGCAAAUAAACGAGUGAUGUUCGACGAUACCAGCCUCGAUAGAGGCCCUUGGCAGCGUAAAUGAUCACAAAGCCAAGGGCUGC [#SwitchBubble 1] | 332 nM | 375 nM | 396 nM | 366 nM | 362 nM
2 | GCAGUGAUGUUGCACGAGUACGGUAGAGUACGAGGACCGGUACGGCCGCCACUCGUACGGAACUGGCUAAUUUAUGGAAUGGUGA [II] | 383 nM | 463 nM | 1440 nM | 477 nM | 365 nM
3 | GCAGUGAUGUUGCUCGUUUCAUCGCGAGAUACCAGACCAUAUGAGGUCCCUUGGCAGCUCUAGUCAUCUGGUCCUUUUGCGUACU [theeternabot_exclusion_KL_Theo_A_2] | 906 nM | 620 nM | 941 nM | 722 nM | 653 nM
4 | GCAUCCAUGGCAGGAUAUAGCUGAGUGAUGUUCAGGACCCAGUCAGUAUCCAUUACUACUGGACUUCUAGAAGGGCCAUGGAUGC | 231 nM | 192 nM | 288 nM | 288 nM | 246 nM
5 | GCAUCCGAUGCAGGAUAUAGAUGAACGAGUGAUGUUUGGAAUUUAUGUCCAAAGCCUACGAUCAGACUAGAAGGGCAUCGGAUGC | 147 nM | 75.4 nM | 122 nM | 197 nM | 164 nM
6 | GCAUCCUCUGCAGGAUAUCGCGGAGUGAUGUUCCGCGCAUGCCAUAGCGAAAGCUAUGGCAUGCGACGAGAAGGGCAGAGGAUGC | 165 nM | 124 nM | 147 nM | 157 nM | 138 nM
7 | GCAUUGAGUGAUGUUUAAGCUUAGUCAUCACGAGGACCGGUACGGCCGCCACUCGUGCUUGGAGCGACCGAUACCCUAGAGACCC [theeternabot_sameState_KL_Trp_A_27] | 160 nM | 62.5 nM | 61.7 nM | 247 nM | 193 nM
8 | GCCAGAGCGCGAAGGAGCGCCGUGACAGGUUGCUGCCGUGGGCAGUGAUGUUGCUCAGUCUGGCAGGUAGGUCGCGUGCUCUGGC | 196 nM | 173 nM | 205 nM | 228 nM | 219 nM
9 | GCCCACAUUAGUGAUACCAGUGGGCACUCACCAGUUCAGUGAUGUUGGACGCAGUGUGGUCACCCUUGGCAGCACCGAUGCCCUU [theeternabot_sameState_KL_Theo_B_32] | 129 nM | 128 nM | 122 nM | 122 nM | 129 nM
10 | GCCCUUCAGGUCGGAGUGAUGUUCCAAUGGAAGGAUAUCCGGGCUCGGAGAAGGUCCAAUUGUGUCUUGUUAAGGUGCUCACUAC [theeternabot_sameState_KL_FMN_A_46] | 251 nM | 221 nM | 215 nM | 203 nM | 223 nM
11 | GCCGUACGCACGGAUACCAGCACUCGGUGAGUGAUGUUCACGGUGUGGUAUUCACCGGGCUGCCCUUGGCAGCCGUGCGUACGGC | 375 nM | 301 nM | 343 nM | 1280 nM | 283 nM
12 | GCCGUACGCAUGGAUACCAGAGUCUUUCUAGUGCCUCUGGAGUACAGUGAUGUUGUGCCACUCCCUUGGCAGCCAUGCGUACGGC | 1080 nM | 647 nM | 906 nM | 671 nM | 768 nM
13 | GCCGUACGCAUGGAUACCAGAUGGCACUAUAAUCUCCCAGAGUGAUGUUCUGGCCUGCCUAUCCCUUGGCAGCCAUGCGUACGGC | 686 nM | 514 nM | 670 nM | 387 nM | 585 nM
14 | GCCGUACGCAUGGAUACCAGCACACAACGAAGUGAUGUUUCGUGCGUAGAUUUGUGCUACUGCCCUUGGCAGCCAUGCGUACGGC | 86.6 nM | 69 nM | 82.2 nM | 69.3 nM | 78.6 nM
15 | GCCGUACGCAUGGAUACCAGCUAGACCGAGUGAUGUUCAGGUCUGAAUGCCGGUAUCAAGAGCCCUUGGCAGCCAUGCGUACGGC | 382 nM | 265 nM | 301 nM | 329 nM | 292 nM
16 | GCCGUACGCAUGGAUACCAGCUAUUAGAGUGAUGUUCUAUGGCCCUGCCAAUGGAGCUGUAGCCCUUGGCAGCCAUGCGUACGGC | 112 nM | 95.2 nM | 109 nM | 105 nM | 104 nM
17 | GCCGUACGCAUGGAUACCAGUCUUUCACGACUGGACAUGGAGUGAUGUUUCGUGAUGCUAGACCCUUGGCAGCCAUGCGUACGGC | 255 nM | 198 nM | 242 nM | 329 nM | 210 nM
18 | GCCGUAGAUGGAAGGAGCGUGGUUAAUGUAAGUGAUGUUUACGAGGUUAACAAUUAACCGCCACAGGUAGGUCGCCAUCUACGGC | 72.8 nM | 62.8 nM | 77.5 nM | 58.6 nM | 73.8 nM
19 | GCCGUAGAUUGAAGGAGCGACAUAAACGAUGUUCUGGUAGUGAUGUUACCUUAGCAGGCAUGUCAGGUAGGUCGCAAUCUACGGC | 238 nM | 133 nM | 209 nM | 162 nM | 176 nM
20 | GCCGUAGAUUGAAGGAGCGAGGCUAAUUAAAGACCGAGUGAUGUUCGGGAGCGUGAAACUCCUCAGGUAGGUCGCAAUCUACGGC | 217 nM | 180 nM | 204 nM | 186 nM | 180 nM
21 | GCCGUAGAUUGAAGGAGCGGACAGAUACGGGUAUCCAGUGAUGUUGGAAGGUAGCUACUAGUCCAGGUAGGUCGCAAUCUACGGC | 283 nM | 111 nM | 304 nM | 286 nM | 164 nM
22 | GCCGUAGAUUGAAGGAGCGGCUUCAUCAAAUCUCUAGCCCACACCAGUGAUGUUGGUGUUAGCCAGGUAGGUCGCAAUCUACGGC | 421 nM | 313 nM | 450 nM | 430 nM | 411 nM
23 | GCCGUAGAUUGAAGGAGCGGUAUGGGCGGUGGCUGAGUGAUGUUCAGGAAAAGUGGCUUCUACCAGGUAGGUCGCAAUCUACGGC | 108 nM | 103 nM | 127 nM | 146 nM | 113 nM

Row | Sequence | apparent KD of K4 kissing-loop reporter (input ligand: FMN 200 uM) | apparent KD of K4 kissing-loop reporter (input ligand: arginine 13.2 mM) | apparent KD of K4 kissing-loop reporter (input ligand: none) | apparent KD of K4 kissing-loop reporter [1] | apparent KD of K4 kissing-loop reporter [2]
24 | GCCUGGGCACGAAGGAGCGCCGUGACAGGUUACUGCCUUGGGCAGUGAUGUUGCUCAAUCUGGCAGGUAGGUCGCGUGCCCAGGC | 162 nM | 162 nM | 161 nM | 159 nM | 168 nM
25 | GCGCAUGUUAAAGGAUAUAGCAGGUGAUACAAGAAAGUGAGUGAUGUUUAUGUAGAUGAUGAUAUGUUAGAAGGUUAACAAAAGC [abcdefghijklmn] | 717 nM | 624 nM | 674 nM | 691 nM | 434 nM
26 | GCGCGCGGCGGAGGAUAUAGCCGGUGGUCCGGGAAAGUGAGUGAUGUUCGCGGAGUUCUGGAUAUGUUAGAAGGCCGCCGCGCGC [qwertyuiopasdfghjklzxcvbnm] | 1010 nM | 857 nM | 1060 nM | 700 nM | 718 nM
27 | GCGCGGCAGGCGGCCGCCACUCUGACGAGCCACAGUGAUGUUGUGGUCGGAGUAACGUCUUCAUAGAGGACCGGGUUUGUUGUUC [Same State Typtophan A GF 26] | 224 nM | 212 nM | 239 nM | 290 nM | 230 nM
28 | GCGCGGGAGUGAUGUUCCAAGUGGUGUUAACGAGGACCGGUACGGCCGCCACUCGUUACGGCCGGGCCGUAGGAUAAACUGGCGC [Same State - Tryptophan A (Freestyle 15)] | 373 nM | 418 nM | 479 nM | 544 nM | 398 nM
29 | GCGCGGGAGUGAUGUUCCAAGUGGUGUUAGCGAGGACCGGUACGGCCGCCACUCGUUACGGGCGGCCCGUAGGAUACACUGGCGC [Same State - Tryptophan A (Freestyle 18)] | 431 nM | 399 nM | 430 nM | 560 nM | 392 nM
30 | GCGCGUCAUGUCAGCGGUGACACUGUCGAUACCAGCGCCGAAAGGCGCCCUUGGCAGCGACGUGCUGGAGUGAUGUUCCAGCGUC [#2 Exclusion - Theophylline A Attempt #24 (HarryS)] | 163 nM | 108 nM | 148 nM | 148 nM | 139 nM
31 | GCGCGUCAUGUCAGCGGUGACUAUGUCGAUACCAGCGCCGCAAGGCGCCCUUGGCAGCGACGCGCUGGAGUGAUGUUCCAGCGUG [#2 Exclusion - Theophylline A Attempt #10 (HarryS)] | 148 nM | 118 nM | 140 nM | 144 nM | 124 nM
32 | GCGGCCCAGACGGAUACCAGUGACCCGCUGGGAACCGCGGGCCCAGAGUGAUGUUCGGGACACCCUUGGCAGCCGCCUGGGUCGC [#2 Same State - Theophylline B Attempt #19 (HarryS)] | 732 nM | 293 nM | 491 nM | 606 nM | 448 nM
33 | GCGUCCAUGUAUGAUACCAGACUUUUUUUAGUAGGUGACGAUAGUGAUGUUAUACGUCAAGUCCCUUGGCAGCAUGACCUAUUAU [theeternabot_exclusion_KL_Theo_B_23] | 423 nM | 461 nM | 418 nM | 694 nM | 587 nM
34 | GCGUCGCAGGUCGCAGUACCAUCGCGGGAUACCAGCCCUGCUACCGGCCCUUGGCAGCCCGGUUAUCGGUUAGUGAUGUUAGCCA [theeternabot_sameState_KL_Theo_A_44] | 642 nM | 531 nM | 739 nM | 621 nM | 591 nM
35 | GCUACCUAGGCAGGAUAUCGUAUUGAGUGAUGUUCAAUAACGGUCUACCAAAGGUAGACCGACCUUCGAGAAGGGCCUAGGUAGC | 143 nM | 163 nM | 193 nM | 174 nM | 166 nM
36 | GCUACUGCUGAAGGAUAUAUCAAUAGAGUGAUGUUCUAUGUCGGUAGCCCGAAAGGGCUACCGACGGUAGAAGGUCAGCAGUAGC | 182 nM | 1090 nM | 1560 nM | 1120 nM | 960 nM
37 | GCUAGCAUGGCAGGAUAUAGCUAUAGGAGUGAUGUUCCUUGGUAGGUGAGUGAUGUUCACUACCAACUAGAAGGGCCAUGCUAGC | 148 nM | 116 nM | 125 nM | 121 nM | 135 nM
38 | GCUAGUGCCCGCUCGAAAGAGCGUGUGUGUAAGGAUAUCUAGUAAUAGAGAAGGUACGGAGUGAUGUUCCCACACGGGCACUAGC | 705 nM | 600 nM | 800 nM | 779 nM | 1060 nM
39 | GCUAUGGUAGGAAGGAGCGCGGACGAUAUUUAUCGAGUGAUGUUCGAUUCAUUAAUUUGAACGCAGGUAGGUCGCCUACUAUAGC [Arginine B K4 29] | 138 nM | 148 nM | 160 nM | 134 nM | 161 nM
40 | GCUAUGGUAGGAAGGAGCGCUAAUUUAUUUUUACGAGUGAUGUUCGGUAGUAGAUUGUUAAAGCAGGUAGGUCGCCUACUAUAGC [Arginine B K4 17] | 103 nM | 124 nM | 106 nM | 85.7 nM | 92.5 nM
41 | GCUAUGGUAGGAAGGAGCGCUACUUUAUUUUUACGAGUGAUGUUCGGUAGUAGAGUGUUAAAGCAGGUAGGUCGCCUACUAUAGC [Arginine B K4 18] | 217 nM | 132 nM | 140 nM | 172 nM | 146 nM
42 | GCUAUGGUAGGAAGGAGCGCUUAAUUAUUAAUAAGAGUGAUGUUCGAUAAUAAAUAUUUAUAGCAGGUAGGUCGCCUACUAUAGC [KL-SSArg B22] | 155 nM | 168 nM | 174 nM | 243 nM | 104 nM
43 | GCUAUGGUAGGAAGGAGCGCUUAUUUAUUAAUAAGAGUGAUGUUCGAUAAUAAAUAUUUAUAGCAGGUAGGUCGCCUACUAUAGC [Arginine B K4 1] | 225 nM | 219 nM | 232 nM | 227 nM | 204 nM
44 | GCUAUGGUAGGAAGGAGCGCUUAUUUAUUAAUAAGAGUGAUGUUCGAUAAUAGAUAUUUAUAGCAGGUAGGUCGCCUACUAUAGC [Arginine B K4 11] | 290 nM | 278 nM | 293 nM | 321 nM | 165 nM
45 | GCUAUGGUUGGAAGGAGCGUUGGGUUACUAAUAAGAGUGAUGUUCGAUAGUAGGUAAUUGUAGCAGGUAGGUCGCCAACUAUAGC [KL-Arg B26] | 290 nM | 304 nM | 329 nM | 234 nM | 211 nM
